In paper PMC10324447:

Tests used:
[1] = target: VRC01 IgG1 bound to its antigen (not stated | HIV-1, strain BaL); assay: ITC
[2] = target: VRC01 IgG1; assay: ITC

Q: For “human FcγRIIIa-V158, soluble extracellular domain (receptor)”, which Kd [1] is on record?
A: The Kd was 547 nM.

Q: What about the Kd [2] of the same substance?
A: Its Kd is 150 nM.
